Test results as given in patent US20240425589A1, “CYTOTOXICITY-INDUCING THERAPEUTIC AGENT FOR USE IN TREATMENT OF CANCER” (CHUGAI SEIYAKU KABUSHIKI KAISHA, priority 2021, published 2024).

Assays:
[1] = molecular target: T1, recombinant human CD3 (human CD3eg linker) (Homo sapiens, UniProt P07766+P09693); experiment: Biacore T200 SPR affinity of Dual-Fab antibodies to human CD3; assay type: binding; details: 25 degrees C, pH 7.4
T1 construct: made in house; host or cells: FreeStyle293F
Description: The gamma and epsilon subunits of the human CD3 complex (human CD3eg linker) were linked by a 29-mer linker and a Flag-tag was fused to the C-terminal end of the gamma subunit (SEQ ID NO: 169). This construct was expressed transiently using FreeStyle293F cell line (Thermo Fisher). Conditioned media expressing human CD3eg linker was concentrated using a column packed with Q HP resins (GE healthcare) and then applied to FLAG-tag affinity chromatography. Fractions containing human CD3eg linker were collected and subsequently subjected to a Superdex 200 gel filtration column (GE healthcare) equilibrated with 1×D-PBS. Fractions containing human CD3eg linker were then pooled and stored at −80 degrees C.
(§1) Binding affinity of Dual-Fab antibodies (Dual-Ig) to human CD3 were assessed at 25 degrees C. using Biacore T200 instrument (GE Healthcare). Anti-human Fc (GE Healthcare) was immobilized onto all flow cells of a CM4 sensor chip using amine coupling kit (GE Healthcare). Antibodies were captured onto the anti-Fc sensor surfaces, then recombinant human CD3 or CD137 was injected over the flow cell. All antibodies and analytes were prepared in ACES pH 7.4 containing 20 mM ACES, 150 mM NaCl, 0.05% Tween 20, and 0.005% NaN3. Sensor surface was regenerated each cycle with 3M MgCl2. Binding affinity were determined by processing and fitting the data to 1:1 binding model using Biacore T200 Evaluation software, version 2.0 (GE Healthcare). CD137 binding affinity assay was conducted in same condition except assay temperature was set at 37 degrees C.

recombinant human CD137 = molecular target: T2, recombinant human CD137 (Homo sapiens, UniProt Q07011); experiment: Biacore T200 SPR affinity of Dual-Fab antibodies to human CD137; assay type: binding; details: 37 degrees C, pH 7.4
T2 construct: made in house; host or cells: FreeStyle293F
T2 sequence (Q07011 with tags, fused parts or gaps): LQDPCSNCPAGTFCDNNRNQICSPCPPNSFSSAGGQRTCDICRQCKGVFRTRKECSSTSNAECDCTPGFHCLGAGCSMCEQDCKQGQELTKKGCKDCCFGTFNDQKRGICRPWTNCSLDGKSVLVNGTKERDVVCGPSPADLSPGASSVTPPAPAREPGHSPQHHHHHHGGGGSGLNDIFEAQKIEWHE
Description: Human CD137 extracellular domain (ECD) (SEQ ID NO: 179) with hexahistidine (His-tag) and biotin acceptor peptide (BAP) on its C-terminus was expressed transiently using FreeStyle293F cell line (Thermo Fisher). Conditioned media expressing human CD137 ECD was applied to a HisTrap HP column (GE healthcare) and eluted with buffer containing imidazole (Nacalai). Fractions containing human CD137 ECD were collected and subsequently subjected to a Superdex 200 gel filtration column (GE healthcare) equilibrated with 1×D-PBS. Fractions containing human CD137 ECD were then pooled and stored at −80 degrees C.
as §1

T1 sequence (P07766+P09693 fused): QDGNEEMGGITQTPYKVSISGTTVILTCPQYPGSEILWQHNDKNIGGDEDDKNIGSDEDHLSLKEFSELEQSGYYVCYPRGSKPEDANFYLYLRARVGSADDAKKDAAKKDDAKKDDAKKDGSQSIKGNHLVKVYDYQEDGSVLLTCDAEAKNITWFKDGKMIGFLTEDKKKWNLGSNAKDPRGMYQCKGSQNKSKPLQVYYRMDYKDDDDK

Row | Molecule | CD3 Koff [1] | CD3 Kon [1] | CD137 Koff (recombinant human CD137) | CD137 Kon (recombinant human CD137) | Kd [1]
1 | H1610L0581: affinity matured Dual-Fab variant, VH SEQ ID NO 94, VL SEQ ID NO 143 (antibody, V domains shown) VH: QVQLVESGGGLVQPGRSLRLSCAASGFVFSNVWMHWVRQAPGKGLEWVAQIKDKWNAYAAYYAPSVKGRFTISRDDSKNSIYLQMNSLKTEDTAVYYCHYIHYASASTLLPAEGIDAWGQGTTVTVSS VL: DIVMTQSPLSLPVTPGEPASISCQPSQEVVHMNRNTYLHWYQQKPGQAPRLLIYKVSNRFPGVPDRFSGSGSGTDFTLKISRVEAEDVGVYYCAQGTSHPFTFGQGTKLEIK | 0.00142 s⁻¹ | 68000 M⁻¹ s⁻¹ | 0.0011 s⁻¹ | 10700 M⁻¹ s⁻¹ | 
2 | H1649L0581: affinity matured Dual-Fab variant, VH SEQ ID NO 97, VL SEQ ID NO 143 (antibody, V domains shown) VH: QVQLVESGGGLVQPGRSLRLSCAASGFVFSNVWFHWVRQAPGKGLEWVAQIKDKYNAYADYYAPSVKERFTISRDDSKNSIYLQMNSLKTEDTAVYYCHYVHYASASTLLPAEGVDAWGQGTTVTVSS VL: DIVMTQSPLSLPVTPGEPASISCQPSQEVVHMNRNTYLHWYQQKPGQAPRLLIYKVSNRFPGVPDRFSGSGSGTDFTLKISRVEAEDVGVYYCAQGTSHPFTFGQGTKLEIK | 0.0336 s⁻¹ | 75000 M⁻¹ s⁻¹ | 0.000553 s⁻¹ | 12900 M⁻¹ s⁻¹ | 
3 | H1652L0943: affinity matured Dual-Fab variant, VH SEQ ID NO 99, VL SEQ ID NO 146 (antibody, V domains shown) VH: QVQLVESGGGLVQPGRSLRLSCAASGFVFSNVWFHWVRQAPGKGLEWVAQIKDYYNAYADYYAPSVEGRFTISRDDSKNSIYLQMNSLKTEDTAVYYCHYVHYASASTLLPAEGVDAWGQGTTVTVSS VL: DIVMTQSPLSLPVTPGEPASISCQPSEEVVHMNRNTYLHWYQQKPGQAPRLLIYKVSNLFPGVPDRFSGSGSGTDFTLKISRVEAEDVGVYYCAQGTHHPFTFGQGTKLEIK | 0.0636 s⁻¹ | 62300 M⁻¹ s⁻¹ | 0.00047 s⁻¹ | 12900 M⁻¹ s⁻¹ | 1.02 µM
4 | H1571L0581: affinity matured Dual-Fab variant, VH SEQ ID NO 93, VL SEQ ID NO 143 (antibody, V domains shown) VH: QVQLVESGGGLVQPGRSLRLSCAASGFKFSNVWFHWVRQAPGKGLEWVAQIKDKYNAYATYYAPSVKGRFTISRDDSKNSIYLQMNSLKTEDTAVYYCHYVHYASASTLLPAFGVDAWGQGTTVTVSS VL: DIVMTQSPLSLPVTPGEPASISCQPSQEVVHMNRNTYLHWYQQKPGQAPRLLIYKVSNRFPGVPDRFSGSGSGTDFTLKISRVEAEDVGVYYCAQGTSHPFTFGQGTKLEIK |  |  | 0.00105 s⁻¹ | 12100 M⁻¹ s⁻¹ | 
5 | H1673L0581: affinity matured Dual-Fab variant, VH SEQ ID NO 100, VL SEQ ID NO 143 (antibody, V domains shown) VH: QVQLVESGGGLVQPGRSLRLSCAASGFVFSNVWFHWVRQAPGKGLEWVAQIKDKWNAYADYYAPSVKERFTISRDDSKNSIYLQMNSLKTEDTAVYYCHYIHYASASTLLPAEGIDAWGQGTTVTVSS VL: DIVMTQSPLSLPVTPGEPASISCQPSQEVVHMNRNTYLHWYQQKPGQAPRLLIYKVSNRFPGVPDRFSGSGSGTDFTLKISRVEAEDVGVYYCAQGTSHPFTFGQGTKLEIK | 0.00106 s⁻¹ | 79600 M⁻¹ s⁻¹ | 0.00096 s⁻¹ | 11900 M⁻¹ s⁻¹ | 
6 | H1647L0581: affinity matured Dual-Fab variant, VH SEQ ID NO 96, VL SEQ ID NO 143 (antibody, V domains shown) VH: QVQLVESGGGLVQPGRSLRLSCAASGFKFSNTWFHWVRQAPGKGLEWVAQIKDYYNDYAAYYAPSVKGRFTISRDDSKNSIYLQMNSLKTEDTAVYYCHYVHYASASTLLPAEGVDAWGQGTTVTVSS VL: DIVMTQSPLSLPVTPGEPASISCQPSQEVVHMNRNTYLHWYQQKPGQAPRLLIYKVSNRFPGVPDRFSGSGSGTDFTLKISRVEAEDVGVYYCAQGTSHPFTFGQGTKLEIK |  |  | 0.000647 s⁻¹ | 9980 M⁻¹ s⁻¹ | 
7 | H1610L0939: affinity matured Dual-Fab variant, VH SEQ ID NO 94, VL SEQ ID NO 145 (antibody, V domains shown) VH: QVQLVESGGGLVQPGRSLRLSCAASGFVFSNVWMHWVRQAPGKGLEWVAQIKDKWNAYAAYYAPSVKGRFTISRDDSKNSIYLQMNSLKTEDTAVYYCHYIHYASASTLLPAEGIDAWGQGTTVTVSS VL: DIVMTQSPLSLPVTPGEPASISCQPSQEVVHMNRNTYLHWYQQKPGQAPRLLIYKVSNVFPGVPDRFSGSGSGTDFTLKISRVEAEDVGVYYCAQGTHHPFTFGQGTKLEIK | 0.00253 s⁻¹ | 50000 M⁻¹ s⁻¹ | 0.000801 s⁻¹ | 13000 M⁻¹ s⁻¹ | 
8 | H1649L0943: affinity matured Dual-Fab variant, VH SEQ ID NO 97, VL SEQ ID NO 146 (antibody, V domains shown) VH: QVQLVESGGGLVQPGRSLRLSCAASGFVFSNVWFHWVRQAPGKGLEWVAQIKDKYNAYADYYAPSVKERFTISRDDSKNSIYLQMNSLKTEDTAVYYCHYVHYASASTLLPAEGVDAWGQGTTVTVSS VL: DIVMTQSPLSLPVTPGEPASISCQPSEEVVHMNRNTYLHWYQQKPGQAPRLLIYKVSNLFPGVPDRFSGSGSGTDFTLKISRVEAEDVGVYYCAQGTHHPFTFGQGTKLEIK | 0.0481 s⁻¹ | 61000 M⁻¹ s⁻¹ | 0.000468 s⁻¹ | 14300 M⁻¹ s⁻¹ | 
9 | H1643L0581: affinity matured Dual-Fab variant, VH SEQ ID NO 95, VL SEQ ID NO 143 (antibody, V domains shown) VH: QVQLVESGGGLVQPGRSLRLSCAASGFKFSNVWFHWVRQAPGKGLEWVAQIKDYYNAYAAYYAPSVKGRFTISRDDSKNSIYLQMNSLKTEDTAVYYCHYVHYASASTLLPAEGVDAWGQGTTVTVSS VL: DIVMTQSPLSLPVTPGEPASISCQPSQEVVHMNRNTYLHWYQQKPGQAPRLLIYKVSNRFPGVPDRFSGSGSGTDFTLKISRVEAEDVGVYYCAQGTSHPFTFGQGTKLEIK | 0.0251 s⁻¹ | 94600 M⁻¹ s⁻¹ | 0.000606 s⁻¹ | 12300 M⁻¹ s⁻¹ | 
10 | H0868L0581: affinity matured Dual-Fab variant, VH SEQ ID NO 91, VL SEQ ID NO 143 (antibody, V domains shown) VH: QVQLVESGGGLVQPGRSLRLSCAASGFKFSNVWMHWVRQAPGKGLEWVAQIKDKYNAYAAYYAPSVKGRFTISRDDSKNSIYLQMNSLKTEDTAVYYCHYVHYASASTLLPAFGVDAWGQGTTVTVSS VL: DIVMTQSPLSLPVTPGEPASISCQPSQEVVHMNRNTYLHWYQQKPGQAPRLLIYKVSNRFPGVPDRFSGSGSGTDFTLKISRVEAEDVGVYYCAQGTSHPFTFGQGTKLEIK |  |  | 0.00136 s⁻¹ | 12200 M⁻¹ s⁻¹ | 
11 | H1651L0581: affinity matured Dual-Fab variant, VH SEQ ID NO 98, VL SEQ ID NO 143 (antibody, V domains shown) VH: QVQLVESGGGLVQPGRSLRLSCAASGFVFSNVWFHWVRQAPGKGLEWVAQIKDKYNAYADYYAPSVEGRFTISRDDSKNSIYLQMNSLKTEDTAVYYCHYVHYASASTLLPAEGVDAWGQGTTVTVSS VL: DIVMTQSPLSLPVTPGEPASISCQPSQEVVHMNRNTYLHWYQQKPGQAPRLLIYKVSNRFPGVPDRFSGSGSGTDFTLKISRVEAEDVGVYYCAQGTSHPFTFGQGTKLEIK | 0.0371 s⁻¹ | 71800 M⁻¹ s⁻¹ | 0.000603 s⁻¹ | 14000 M⁻¹ s⁻¹ | 
